Source: article doi:10.1101/2024.05.23.595586

Biological target: TREM2 (a.a. 19-134), biotinylated, WT (human) (UniProt Q9NZC2)
Experiment: BLI

Chain of TREM2 (a.a. 19-134), biotinylated, WT (human) (Q9NZC2 19-134): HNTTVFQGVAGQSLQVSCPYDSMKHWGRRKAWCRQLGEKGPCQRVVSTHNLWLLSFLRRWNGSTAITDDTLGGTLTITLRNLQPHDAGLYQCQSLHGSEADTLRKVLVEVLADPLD

“oligomeric amyloid beta 42 (oAβ42) WT (peptide)” gave a Kd of 42.5 nM.
